What is called Kd is the constant that tells how readily two partners part at equilibrium. As usually defined, the koff is a measure of how fast the partners let go of each other. Lower therefore signals a long-lived complex. The kon is a measure of how fast the partners come together.

The values that follow come from PMC5378893 (Scientific Reports, 2015).

This experiment addresses T1, extracellular domain (ECD) of human epidermal growth factor receptor 2 (HER2) (Homo sapiens, UniProt P04626).
T1 construct: human epidermal growth factor receptor 2 (HER2), extracellular domain; also called HER2/ECD
Put plainly: SPR; BIAcore T200; HER2/ECD immobilised on a CM5 chip by amine coupling to 1000 RU; IgG flowed in PBST (0.05% Tween 20) at 30 uL/min; regeneration 10 mM glycine pH 1.5; global fit to a 1:1 binding model. To be noted: both partners purified. A general note: In SPR one partner is held on a chip, and binding of the other changes the refractive index at the surface.

B1: GH2-3 IgG (antibody, V domains shown)
VH: EVQLVESGGGLVQPGGSLRLSCAASGFTISGGWIHWVRQAPGKGLEWVAGIWPSGGSTSYADSVKGRFTISADTSKNTAYLQMNSLRAEDTAVYYCARFYFGFGDLMDYWGQGTLVTVSS
VL: DIQMTQSPSSLSASVGDRVTITCRASQDVNNNVAWYQQKPGKAPKLLIYGARYLYSGVPSRFSGSGSGTDFTLTISSLQPEDFATYYCQQFGGGPLTFGQGTKVEIK
notes: source: HEK293-F, transient transfection, purified (Protein A, Superdex 200)
As to B1, binding was characterised by a dissociation constant (Kd) of 2.07 nM, the koff came to 0.000502 s⁻¹ and the kon amounted to 242000 M⁻¹ s⁻¹.

B2: GH2-16 IgG (antibody, V domains shown)
VH: EVQLVESGGGLVQPGGSLRLSCAASGFTINNWGIHWVRQAPGKGLEWVAGIWPFGGYTYYADSVKGRFTISADTSKNTAYLQMNSLRAEDTAVYYCARFDYLNNGGMDYWGQGTLVTVSS
VL: DIQMTQSPSSLSASVGDRVTITCRASQDVYSSVAWYQQKPGKAPKLLISYTSYLYSGVPSRFSGSGSGTDFTLTISSLQPEDFATYYCQQYYGGPMTFGQGTKVEIK
notes: as for B1
Take B2: the Kd stood at 1.2 nM, the koff turned out to be 0.000102 s⁻¹ and the kon worked out at 85700 M⁻¹ s⁻¹.

B3: GH2-95 IgG (antibody, V domains shown)
VH: EVQLVESGGGLVQPGGSLRLSCAASGFTIDSWGIHWVRQAPGKGLEWVAGIGPFWGYTSYADSVKGRFTISADTSKNTAYLQMNSLRAEDTAVYYCARFGIHFDGIMDYWGQGTLVTVSS
VL: DIQMTQSPSSLSASVGDRVTITCRASQDVSGGVAWYQQKPGKAPKLLIFGSTWLYSGVPLRFSGSGSGTDFTLTISSLQPEDFATYYCQQYYDWPLTFGQGTKVEIK
notes: as for B1
For the molecule B3, the Kd turned out to be 4.47 nM, the koff worked out at 0.000244 s⁻¹ and the kon was determined as 54700 M⁻¹ s⁻¹.

B4: GH2-98 IgG (antibody, V domains shown)
VH: EVQLVESGGGLVQPGGSLRLSCAASGFTINNYGIHWVRQAPGKGLEWVAGIGPSWGFTYYADSVKGRFTISADTSKNTAYLQMNSLRAEDTAVYYCARFGFYNDGFMDYWGQGTLVTVSS
VL: DIQMTQSPSSLSASVGDRVTITCRASQDVGSGVAWYQQKPGKAPKLLIYFSASLYSGVPSRFSGSGSGTDFTLTISSLQPEDFATYYCQQYYNWPLTFGQGTKVEIK
notes: as for B1
In the case of B4, the Kd stood at 88.5 nM, the koff was 0.0224 s⁻¹ and the kon was found to be 254000 M⁻¹ s⁻¹.

B5: GH2-104 IgG (antibody, V domains shown)
VH: EVQLVESGGGLVQPGGSLRLSCAASGFTIDSWGIHWVRQAPGKGLEWVAGIGPFGGYTSYADSVKGRFTISADTSKNTAYLQMNSLRAEDTAVYYCARFGDYIDGVMDYWGQGTLVTVSS
VL: DIQMTQSPSSLSASVGDRVTITCRASQDVNSNVAWYQQKPGKAPKLLIYGSPSLYSGVPSRFSGSGSGTDFTLTISSLQPEDFATYYCQQYYDWPLTFGQGTKVEIK
notes: as for B1
B5 gave a Kd of 1.04 nM, a koff of 0.000884 s⁻¹ and a kon of 852000 M⁻¹ s⁻¹.

B6: GH2-23 IgG (antibody, V domains shown)
VH: EVQLVESGGGLVQPGGSLRLSCAASGFTINGGGIHWVRQAPGKGLEWVAFIGPFGGSTFYADSVKGRFTISADTSKNTAYLQMNSLRAEDTAVYYCARFFGGNIHVMDYWGQGTLVTVSS
VL: DIQMTQSPSSLSASVGDRVTITCRASQDVFWGVAWYQQKPGKAPKLLISWSASLYSGVPSRFSGSGSGTDFTLTISSLQPEDFATYYCQQYFSFPFTFGQGTKVEIK
notes: as for B1
In the case of B6, binding was characterised by a dissociation constant (Kd) of 0.827 nM, the koff worked out at 0.00018 s⁻¹ and the kon stood at 217000 M⁻¹ s⁻¹.

B7: GH2-8 IgG (antibody, V domains shown)
VH: GVQLVESGGGLVQPGGSLRLSCAASGFTIGSSGIHWVRQAPGKGLEWVAGIWPYWGSTYYADSVKGRFTISADTSKNTAYLQMNSLRAEDTAVYYCARFGVGYHYYMDYWGQGTLVTVSS
VL: DIQMTQSPSSLSASVGDRVTITCRASQDVGWWVAWYQQKPGKAPKLLISGATGLYSGVPSRFSGSGSGTDFTLTISSLQPEDFATYYCQQSWDSPITFGQGTKVEIK
notes: as for B1
B7 came in with a Kd of 0.259 nM, a koff of 0.000155 s⁻¹ and a kon of 599000 M⁻¹ s⁻¹.

B8: GH2-14 IgG (antibody, V domains shown)
VH: EVQLVESGGGLVQPGGSLRLSCAASGFTINDHGIHWVRQAPGKGLEWVAGIGPFGGYTSYADSVKGRFTISADTSKNTAYLQMNSLRAEDTAVYYCARFNFNDVGGMDYWGQGTLVTVSS
VL: DIQMTQSPSSLSASVGDRVTITCRASQDVGGGVAWYQQKPGKAPKLLISGPPYLYSGVPSRFSGSGSGTDFTLTISSLQPEDFATYYCQQYFNYPITFGQGTKVEIK
notes: as for B1
B8 displayed a Kd of 17 nM, a koff of 0.00573 s⁻¹ and a kon of 336000 M⁻¹ s⁻¹.

B9: GH2-21 IgG (antibody, V domains shown)
VH: EVQLVESGGGLVQPGGSLRLSCAASGFTINDYSIHWVRQAPGKGLEWVASIWPFGGSTSYADSVKGRFTISADTSKNTAYLQMNSLRAEDTAVYYCARFNYWIGIIMDYWGQGTLVTVSS
VL: DIQMTQSPSSLSASVGDRVTITCRASQDVSDNVAWYQQKPGKAPKLLIYWATGLYSGVPSRFSGSGSGTDFTLTISSLQPEDFATYYCQQYYGFPLTFGQGTKVEIK
notes: as for B1
As to B9, the Kd is 1.4 nM, the koff stood at 0.000623 s⁻¹ and the kon was found to be 444000 M⁻¹ s⁻¹.

B10: GH2-18 IgG (antibody, V domains shown)
VH: EVQLVESGGGLVQPGGSLRLSCAASGFTISNWGIHWVRQAPGKGLEWVAGIWPYGGYTFYADSVKGRFTISADTSKNTAYLQMNSLRAEDTAVYYCARFNYLNLGGMDYWGQGTLVTVSS
VL: DIQMTQSPSSLSASVGDRVTITCRASQDVNSNVAWYQQKPGKAPKLLIYWTTGLYSGVPSRFSGSGSGTDFTLTISSLQPEDFATYYCQQYLSGPITFGQGTKVEIK
notes: as for B1
The molecule B10 showed a Kd of 0.0695 nM, a koff of 1.09e-05 s⁻¹ and a kon of 156000 M⁻¹ s⁻¹.

B11: GH2-13 IgG (antibody, V domains shown)
VH: EVQLVESGGGLVQPGGSLRLSCAASGFTISDGGIHWVRQAPGKGLEWVAGIWPYWGYTSYADSVKGRFTISADTSKNTAYLQMNSLRAEDTAVYYCARFDNNWVGNMDYWGQGTLVTVSS
VL: DIQMTQSPSSLSASVGDRVTITCRASQDVYFGVAWYQQKPGKAPKLLISGTTSLYSGVPSRFSGSGSGTDFTLTISSLQPEDFATYYCQQYGSYPITFGQGTKVEIK
notes: as for B1
Take B11: the Kd came out at 2.64 nM, the koff is 0.00818 s⁻¹ and the kon turned out to be 3.1e+06 M⁻¹ s⁻¹.

B12: GH2-102 IgG (antibody, V domains shown)
VH: EVQLVESGGGLVQPGGSLRLSCAASGFTINGGGIHWVRQAPGKGLEWVASIGPYGGYTSYADSVKGRFTISADTSKNTAYLQMNSLRAGDTAVYYCARFGHHYDGHMDYWGQGTLVTVSS
VL: DIQMTQSPSSLSASVGDRVTITCRASQDVGSNVAWYQQKPGKAPKLLIYGAPYLYSGVPSRFSGSGSGTDFTLTISSLQPEDFATYYCQQYYNWPLTFGQGTKVEIK
notes: as for B1
The molecule B12 gave a Kd of 28.4 nM, a koff of 0.039 s⁻¹ and a kon of 1.37e+06 M⁻¹ s⁻¹.

B13: GH2-96 IgG (antibody, V domains shown)
VH: EVQLVESGGGLVQPGGSLRLSCAASGFTISGYGIHWVRQAPGKGLEWVAGIGPFWGYTFYADSVKGRFTISADTSKNTAYLQMNSLRAEDTAVYYCARFGHIVDGLMDYWGQGTLVTVSS
VL: DIQMTQSPSSLSASVGDRVTITCRASQDVNGGVAWYQQKPGKAPKLLIYGSSWLYSGVPSRFSGSGSGTDFTLTISSLQPEDFATYYCQQYFDWPITFGQGTKVEIK
notes: as for B1
For the molecule B13, the Kd was 5.42 nM, the koff amounted to 0.00137 s⁻¹ and the kon is 254000 M⁻¹ s⁻¹.

B14: M32 IgG (mouse anti-HER2/ECD) (antibody, V domains shown)
VH: EVQLVESGAELVRPGALVKLSCKASGFNIKDYFMYWVKQRPEQGLEWVGWIDPENGNTIYDPKFQGKASITADTSSNTAYLQLSSLTSEDTAVYYCTRGYYGSRVLAMDYWGQGTSVTVSS
VL: GIELTQSQKFMSTSVGDRVSITCKASQNVGTAVAWYQQKPGQSPKLLIYSASNRYTGVPDRFTGSGSGTDFTLTISNMQSEDLADYFCQQYSSYPLAFGGGTKLEIK
notes: mouse VL; L49~L53 YSASN; L91~L96 YSSYPL; mouse VH; H50~H58 WIDPENGNTI; H96~H100B YYGSRVL; recombinant IgG from a scFv of an immunized mouse's phage library; source: HEK293-F, transient transfection, purified (Protein A, Superdex 200)
B14 registered a Kd of 0.243 nM, a koff of 7.15e-05 s⁻¹ and a kon of 294000 M⁻¹ s⁻¹.

B15: M41 IgG (mouse anti-HER2/ECD) (antibody, V domains shown)
VH: EVQLQQSGAELVKPGASVKMSCKAFGYTFTTYPIEWMKQNHGKSLEWIGNFHPYNDYTNYNEKFKGKAKLTVEKSSTTVYLELSRLTSDDSAVYYCARRHDGYYGAMDYWGQGTSVTVSS
VL: DIQMTQTTSSLSASLGDRVTISCRTSQDISNYLNWYQQKPNGTIKLLIYYTSGLYSGVPSRFSGSGSGADYSLTISNVEQEDIATYFCQQVNTLPYTFGGGTKLELK
notes: mouse VL; L49~L53 YYTSG; L91~L96 VNTLPY; mouse VH; H50~H58 NFHPYNDYTN; H96~H100B HDGYYGA; recombinant IgG from a scFv of an immunized mouse's phage library; source: HEK293-F, transient transfection, purified (Protein A, Superdex 200)
The molecule B15 displayed a Kd of 0.0519 nM, an off-rate (koff) of 3.48e-05 s⁻¹ and a kon of 671000 M⁻¹ s⁻¹.

B16: M61 IgG (mouse anti-HER2/ECD) (antibody, V domains shown)
VH: EVQLQQSGAELVKPGASVKMSCKAFGYTFTTYPIEWMKQNHGKSLEWIGNFHPYNDDTKYNEKFKGKAKLTVEKSSSTVYLELSRLTSDDSAVYYCARRNDGYYGAMDYWGQGTSVTVSS
VL: DIKITQSPASLSASVGETVTITCRASENIYSYLAWYQQKQGKSPQLLVYNAKTLAEGVPSRFSGSGSGTQFSLKINSLQPEDFGSYYCQHHYGTPYTFGGGTKLELK
notes: mouse VL; L49~L53 YNAKT; L91~L96 HYGTPY; mouse VH; H50~H58 NFHPYNDDTK; H96~H100B NDGYYGA; recombinant IgG from a scFv of an immunized mouse's phage library; source: HEK293-F, transient transfection, purified (Protein A, Superdex 200)
B16 had a Kd of 0.591 nM, a koff of 0.0024 s⁻¹ and a kon of 4.06e+06 M⁻¹ s⁻¹.

B17: M62 IgG (mouse anti-HER2/ECD) (antibody, V domains shown)
VH: EVQLQQSGTELARPGASVKLSCKASGYTFIDYYITWVKQRTGQGLEWIGEIYPGGGNPYYNDNFKGKASLTADKSSNTVYMQLSSLTSEDSAVYFCARSYKYDVSVYWGQGTLVTVSA
VL: DIQMIQSQKFMSTSVGDRVSVTCKASQNVGTNVAWYQQKPGQSPKALIHSASYRYSGVPDRFTGSGSGTDFTLTISNVQSEDLAEYFCQQYNSYPLTFGAGTKLEIK
notes: mouse VL; L49~L53 HSASY; L91~L96 YNSYPL; mouse VH; H50~H58 EIYPGGGNPY; H96~H100B YKYDVS; recombinant IgG from a scFv of an immunized mouse's phage library; source: HEK293-F, transient transfection, purified (Protein A, Superdex 200)
B17: the Kd worked out at 0.0228 nM, the koff came to 1.8e-05 s⁻¹ and the kon is 788000 M⁻¹ s⁻¹.

B18: M64 IgG (mouse anti-HER2/ECD) (antibody, V domains shown)
VH: EVQLQQSGAELVKPGASVKLSCTASGFNIKNTYMHWVKQRPEQGLEWIGRIDPANGNTKYDPKLQGKATITADTSSNTAYLHLSSLTSEDTAVYYCVPYYRGAMDYWGQGTSVTVSS
VL: DIQMNQSHKFMSTSVGDRVSITCKASQDVSTAVAWYQQKPGQSPKLLIYWASTRHTGVPGRFTGSGSGADYTLTISSVQAEDLALYYCQQHYSTPYTFGGGTKLEIK
notes: mouse VL; L49~L53 YWAST; L91~L96 HYSTPY; mouse VH; H50~H58 RIDPANGNTK; H96~H100B YRGAM; recombinant IgG from a scFv of an immunized mouse's phage library; source: HEK293-F, transient transfection, purified (Protein A, Superdex 200)
On to B18, for which the Kd came out at 0.195 nM, the koff is 0.000337 s⁻¹ and the kon amounted to 1.74e+06 M⁻¹ s⁻¹.
